# Results reported in patent US20240261333A1, “NOVEL TARGETS FOR ENHANCING ANTI-TUMOR IMMUNITY” (THE BROAD INSTITUTE, INC., priority 2021, published 2024).
# Tests used:
# PUM1 (human) = PUM1 (human) (UniProt Q14671); experiment: co-IP, IgG control, lysate of cells with C-FLAG B3GNT2; mass spectrometry
# HSPA8 (human) = HSPA8 (human) (UniProt P11142); experiment: as above
# PRRC2A (human) = PRRC2A (human) (UniProt P48634); experiment: as above
# RBM39 (human) = RBM39 (human) (UniProt Q14498); experiment: as above
# RPS28 (human) = RPS28 (human) (UniProt P62857); experiment: as above
# ARPC4 (human) = ARPC4 (human) (UniProt P59998); experiment: as above
# RPL4 (human) = RPL4 (human) (UniProt P36578); experiment: as above
# LSM12 (human) = LSM12 (human) (UniProt Q3MHD2); experiment: as above
# KRT6B (human) = KRT6B (human) (UniProt P04259); experiment: as above
# UBAP2L (human) = UBAP2L (human) (UniProt Q14157); experiment: as above
# CAT (human) = CAT (human) (UniProt P04040); experiment: as above
# RPS3 (human) = RPS3 (human) (UniProt P23396); experiment: as above
# NUFIP2 (human) = NUFIP2 (human) (UniProt Q7Z417); experiment: as above
# HUWE1 (human) = HUWE1 (human) (UniProt Q7Z6Z7); experiment: as above
# RPL18 (human) = RPL18 (human) (UniProt Q07020); experiment: as above
# PARP1 (human) = PARP1 (human) (UniProt P09874); experiment: as above
# EIF5B (human) = EIF5B (human) (UniProt O60841); experiment: as above
# PRBP1 (human) = PRBP1 (human) (UniProt P26599); experiment: as above
# KRT4 (human) = KRT4 (human) (UniProt P19013); experiment: as above
# DDX5 (human) = DDX5 (human) (UniProt P17844); experiment: as above
# GSN (human) = GSN (human) (UniProt P06396); experiment: control IP with IgG, lysate of cells with C-FLAG B3GNT2, mass spectrometry
# GBF1 (human) = GBF1 (human) (UniProt Q92538); experiment: as above
# CCT3 (human) = CCT3 (human) (UniProt P49368); experiment: as above
# YBX1 (human) = YBX1 (human) (UniProt P67809); experiment: as above
# KCTD5 (human) = KCTD5 (human) (UniProt Q9NXV2); experiment: as above
# EMILIN1 (human) = EMILIN1 (human) (UniProt Q9Y6C2); experiment: as above
# CALML5 (human) = CALML5 (human) (UniProt Q9NZT1); experiment: as above
# HNRNPM (human) = HNRNPM (human) (UniProt P52272); experiment: as above
# TELO2 (human) = TELO2 (human) (UniProt Q9Y4R8); experiment: as above
# S100A7 (human) = S100A7 (human) (UniProt P31151); experiment: as above
# PKM (human) = PKM (human) (UniProt P14618); experiment: as above
# EIF3A (human) = EIF3A (human) (UniProt Q14152); experiment: as above
# PPFIBP1 (human) = PPFIBP1 (human) (UniProt Q86W92); experiment: as above
# SYNCRIP (human) = SYNCRIP (human) (UniProt O60506); experiment: as above
# SYNPO (human) = SYNPO (human) (UniProt Q8N3V7); experiment: as above
# RPS27A (human) = RPS27A (human) (UniProt P62979); experiment: as above
# TBL2 (human) = TBL2 (human) (UniProt Q9Y4P3); experiment: as above
# IMMT (human) = IMMT (human) (UniProt Q16891); experiment: as above
# HNRNPM (human), sequence (P52272 2-730 limits assumed): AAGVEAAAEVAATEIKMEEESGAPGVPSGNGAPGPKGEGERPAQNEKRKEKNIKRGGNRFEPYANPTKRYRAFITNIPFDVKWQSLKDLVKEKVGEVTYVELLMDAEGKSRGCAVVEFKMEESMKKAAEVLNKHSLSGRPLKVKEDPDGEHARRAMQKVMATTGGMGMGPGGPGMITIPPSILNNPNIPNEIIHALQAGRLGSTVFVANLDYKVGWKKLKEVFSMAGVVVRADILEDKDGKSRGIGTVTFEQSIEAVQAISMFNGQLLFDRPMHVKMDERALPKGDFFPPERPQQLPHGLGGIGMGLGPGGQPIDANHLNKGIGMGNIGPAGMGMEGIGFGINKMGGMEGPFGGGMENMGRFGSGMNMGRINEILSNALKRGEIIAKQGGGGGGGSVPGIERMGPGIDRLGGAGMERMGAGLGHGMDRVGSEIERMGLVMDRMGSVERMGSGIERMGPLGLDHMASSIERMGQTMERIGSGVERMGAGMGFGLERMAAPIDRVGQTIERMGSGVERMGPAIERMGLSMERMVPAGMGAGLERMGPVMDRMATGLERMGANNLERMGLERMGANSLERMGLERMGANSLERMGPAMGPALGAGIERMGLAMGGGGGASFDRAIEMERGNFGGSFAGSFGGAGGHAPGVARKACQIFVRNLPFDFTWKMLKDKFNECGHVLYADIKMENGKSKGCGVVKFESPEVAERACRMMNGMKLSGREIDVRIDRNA
# UBAP2L (human), sequence (Q14157 whole entry): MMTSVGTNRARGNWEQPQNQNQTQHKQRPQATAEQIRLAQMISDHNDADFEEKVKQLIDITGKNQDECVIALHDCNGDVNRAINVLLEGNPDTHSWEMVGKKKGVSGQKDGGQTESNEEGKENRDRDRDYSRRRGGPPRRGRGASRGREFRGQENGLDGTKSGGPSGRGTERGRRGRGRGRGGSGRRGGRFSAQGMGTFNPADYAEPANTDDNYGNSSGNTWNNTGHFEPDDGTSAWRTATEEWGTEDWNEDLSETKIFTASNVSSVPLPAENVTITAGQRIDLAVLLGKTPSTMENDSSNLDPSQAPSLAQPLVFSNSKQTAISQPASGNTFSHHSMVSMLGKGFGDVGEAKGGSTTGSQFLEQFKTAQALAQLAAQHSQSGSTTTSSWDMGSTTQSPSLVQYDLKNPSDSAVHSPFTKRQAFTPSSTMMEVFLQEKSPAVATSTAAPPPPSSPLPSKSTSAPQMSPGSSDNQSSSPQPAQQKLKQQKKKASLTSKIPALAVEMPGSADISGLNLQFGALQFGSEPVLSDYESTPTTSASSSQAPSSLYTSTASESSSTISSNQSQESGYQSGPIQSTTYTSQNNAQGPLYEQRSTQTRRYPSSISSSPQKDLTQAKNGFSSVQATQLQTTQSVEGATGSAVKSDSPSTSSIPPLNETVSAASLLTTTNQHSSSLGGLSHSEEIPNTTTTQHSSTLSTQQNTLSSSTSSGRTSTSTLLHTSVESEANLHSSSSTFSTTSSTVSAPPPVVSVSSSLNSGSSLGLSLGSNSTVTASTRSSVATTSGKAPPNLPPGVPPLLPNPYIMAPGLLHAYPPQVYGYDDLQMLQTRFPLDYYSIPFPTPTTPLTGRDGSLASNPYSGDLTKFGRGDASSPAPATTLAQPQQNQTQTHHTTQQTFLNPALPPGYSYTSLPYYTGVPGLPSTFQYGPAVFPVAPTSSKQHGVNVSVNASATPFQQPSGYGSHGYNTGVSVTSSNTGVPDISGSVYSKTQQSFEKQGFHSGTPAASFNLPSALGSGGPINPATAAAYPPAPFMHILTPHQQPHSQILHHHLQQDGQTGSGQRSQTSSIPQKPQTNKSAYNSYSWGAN
# TBL2 (human), sequence (Q9Y4P3 whole entry): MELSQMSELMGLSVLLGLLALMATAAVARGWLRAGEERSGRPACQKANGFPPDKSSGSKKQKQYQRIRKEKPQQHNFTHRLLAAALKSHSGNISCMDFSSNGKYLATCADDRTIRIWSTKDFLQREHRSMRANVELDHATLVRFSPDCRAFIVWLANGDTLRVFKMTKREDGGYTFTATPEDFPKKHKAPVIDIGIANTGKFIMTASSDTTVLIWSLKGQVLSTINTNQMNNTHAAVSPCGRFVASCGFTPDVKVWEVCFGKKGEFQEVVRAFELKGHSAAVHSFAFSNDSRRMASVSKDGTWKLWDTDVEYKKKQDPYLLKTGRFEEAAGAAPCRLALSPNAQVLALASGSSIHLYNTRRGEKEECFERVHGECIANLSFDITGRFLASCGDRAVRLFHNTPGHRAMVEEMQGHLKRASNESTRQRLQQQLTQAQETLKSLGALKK
# DDX5 (human), sequence (P17844 whole entry): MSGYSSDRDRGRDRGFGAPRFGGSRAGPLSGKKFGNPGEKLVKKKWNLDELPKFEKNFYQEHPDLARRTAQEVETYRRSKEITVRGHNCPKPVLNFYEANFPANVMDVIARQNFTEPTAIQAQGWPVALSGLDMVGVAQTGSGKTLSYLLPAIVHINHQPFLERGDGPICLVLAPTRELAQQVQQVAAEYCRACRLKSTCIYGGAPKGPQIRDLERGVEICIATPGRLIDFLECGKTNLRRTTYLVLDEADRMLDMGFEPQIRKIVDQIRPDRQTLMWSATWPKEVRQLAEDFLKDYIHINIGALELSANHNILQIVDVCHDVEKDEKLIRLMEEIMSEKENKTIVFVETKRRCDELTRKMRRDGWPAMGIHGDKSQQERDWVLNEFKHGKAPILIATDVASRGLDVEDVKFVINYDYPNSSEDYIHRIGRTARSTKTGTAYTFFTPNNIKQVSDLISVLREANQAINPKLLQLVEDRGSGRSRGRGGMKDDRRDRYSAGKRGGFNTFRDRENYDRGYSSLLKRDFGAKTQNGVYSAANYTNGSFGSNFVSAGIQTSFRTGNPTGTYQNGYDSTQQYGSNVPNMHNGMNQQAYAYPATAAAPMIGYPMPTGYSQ
# EMILIN1 (human), sequence (Q9Y6C2 22-1016 limits assumed): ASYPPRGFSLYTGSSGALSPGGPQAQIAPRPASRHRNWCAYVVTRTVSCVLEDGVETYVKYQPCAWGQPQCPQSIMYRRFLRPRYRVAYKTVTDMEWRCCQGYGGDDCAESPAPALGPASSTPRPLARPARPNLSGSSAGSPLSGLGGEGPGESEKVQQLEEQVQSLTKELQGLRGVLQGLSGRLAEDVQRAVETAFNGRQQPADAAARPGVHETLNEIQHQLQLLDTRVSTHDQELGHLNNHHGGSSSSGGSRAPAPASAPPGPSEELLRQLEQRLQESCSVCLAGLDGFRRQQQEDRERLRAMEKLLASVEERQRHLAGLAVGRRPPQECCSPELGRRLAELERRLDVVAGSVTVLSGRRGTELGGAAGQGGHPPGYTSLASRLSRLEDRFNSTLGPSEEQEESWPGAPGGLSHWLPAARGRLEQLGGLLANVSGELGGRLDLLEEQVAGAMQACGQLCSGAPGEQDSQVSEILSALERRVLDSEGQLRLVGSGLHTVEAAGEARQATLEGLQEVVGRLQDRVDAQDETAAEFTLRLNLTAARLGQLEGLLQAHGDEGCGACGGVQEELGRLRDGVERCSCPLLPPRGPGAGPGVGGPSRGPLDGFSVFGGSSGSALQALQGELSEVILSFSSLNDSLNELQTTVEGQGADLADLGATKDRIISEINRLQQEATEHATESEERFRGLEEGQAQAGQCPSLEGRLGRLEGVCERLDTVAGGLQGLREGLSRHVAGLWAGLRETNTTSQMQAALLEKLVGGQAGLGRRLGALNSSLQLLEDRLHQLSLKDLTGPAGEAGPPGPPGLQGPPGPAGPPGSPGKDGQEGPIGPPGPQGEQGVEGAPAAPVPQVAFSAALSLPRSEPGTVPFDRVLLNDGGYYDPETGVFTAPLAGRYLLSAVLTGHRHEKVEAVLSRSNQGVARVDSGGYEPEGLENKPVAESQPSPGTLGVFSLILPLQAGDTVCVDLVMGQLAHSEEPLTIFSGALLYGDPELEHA
# KRT6B (human), sequence (P04259 2-564 limits assumed): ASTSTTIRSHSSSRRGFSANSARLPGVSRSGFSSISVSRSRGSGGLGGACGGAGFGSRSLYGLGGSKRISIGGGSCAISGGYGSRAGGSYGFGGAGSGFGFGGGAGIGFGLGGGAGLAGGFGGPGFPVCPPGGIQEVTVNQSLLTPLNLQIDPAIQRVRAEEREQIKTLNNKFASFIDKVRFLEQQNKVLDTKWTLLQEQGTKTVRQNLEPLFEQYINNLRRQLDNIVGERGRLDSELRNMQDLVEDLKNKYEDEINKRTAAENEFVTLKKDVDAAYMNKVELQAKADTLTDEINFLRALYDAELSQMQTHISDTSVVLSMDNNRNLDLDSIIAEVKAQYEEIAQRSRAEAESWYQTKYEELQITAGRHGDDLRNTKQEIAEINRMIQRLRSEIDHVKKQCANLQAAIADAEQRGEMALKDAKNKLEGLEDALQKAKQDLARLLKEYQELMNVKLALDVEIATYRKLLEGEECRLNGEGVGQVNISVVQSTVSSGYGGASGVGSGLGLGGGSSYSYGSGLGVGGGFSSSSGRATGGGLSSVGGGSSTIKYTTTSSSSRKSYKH
# RBM39 (human), sequence (Q14498 other isoform, or with tags, fused parts or gaps limits assumed): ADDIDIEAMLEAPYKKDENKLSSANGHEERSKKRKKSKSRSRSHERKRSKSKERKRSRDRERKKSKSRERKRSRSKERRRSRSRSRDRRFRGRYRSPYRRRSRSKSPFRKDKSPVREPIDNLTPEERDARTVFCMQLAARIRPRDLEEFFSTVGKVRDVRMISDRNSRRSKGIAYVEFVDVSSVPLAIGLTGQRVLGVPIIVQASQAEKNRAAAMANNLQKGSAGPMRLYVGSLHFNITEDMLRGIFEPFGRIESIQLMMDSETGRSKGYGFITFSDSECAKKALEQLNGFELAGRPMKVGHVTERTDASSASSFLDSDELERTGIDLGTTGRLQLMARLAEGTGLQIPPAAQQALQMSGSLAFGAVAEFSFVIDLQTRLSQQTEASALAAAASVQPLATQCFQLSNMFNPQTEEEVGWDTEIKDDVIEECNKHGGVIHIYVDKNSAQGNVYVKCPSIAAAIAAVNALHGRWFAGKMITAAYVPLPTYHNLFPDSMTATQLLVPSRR
# S100A7 (human), sequence (P31151 2-101 limits assumed): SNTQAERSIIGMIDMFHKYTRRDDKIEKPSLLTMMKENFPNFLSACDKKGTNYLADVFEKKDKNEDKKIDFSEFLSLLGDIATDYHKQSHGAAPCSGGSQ
substance,measurement,setting,value
IgG control (Millipore Sigma 12-371) (antibody),co-IP mass spectrometry count,PUM1 (human),0
same,co-IP mass spectrometry count,HSPA8 (human),15
same,co-IP mass spectrometry count,PRRC2A (human),3
same,co-IP mass spectrometry count,RBM39 (human),3
same,co-IP mass spectrometry count,RPS28 (human),0
same,co-IP mass spectrometry count,ARPC4 (human),0
same,co-IP mass spectrometry count,RPL4 (human),6
same,co-IP mass spectrometry count,LSM12 (human),0
same,co-IP mass spectrometry count,KRT6B (human),295
same,co-IP mass spectrometry count,UBAP2L (human),15
same,co-IP mass spectrometry count,CAT (human),3
same,co-IP mass spectrometry count,RPS3 (human),17
same,co-IP mass spectrometry count,NUFIP2 (human),4
same,co-IP mass spectrometry count,HUWE1 (human),0
same,co-IP mass spectrometry count,RPL18 (human),7
same,co-IP mass spectrometry count,PARP1 (human),0
same,co-IP mass spectrometry count,EIF5B (human),0
same,co-IP mass spectrometry count,PRBP1 (human),6
same,co-IP mass spectrometry count,KRT4 (human),0
same,co-IP mass spectrometry count,DDX5 (human),16
same,co-IP mass spectrometry count,GSN (human),0
same,co-IP mass spectrometry count,GBF1 (human),0
same,co-IP mass spectrometry count,CCT3 (human),0
same,co-IP mass spectrometry count,YBX1 (human),5
same,co-IP mass spectrometry count,KCTD5 (human),0
same,co-IP mass spectrometry count,EMILIN1 (human),0
same,co-IP mass spectrometry count,CALML5 (human),0
same,co-IP mass spectrometry count,HNRNPM (human),5
same,co-IP mass spectrometry count,TELO2 (human),0
same,co-IP mass spectrometry count,S100A7 (human),3
same,co-IP mass spectrometry count,PKM (human),2
same,co-IP mass spectrometry count,EIF3A (human),0
same,co-IP mass spectrometry count,PPFIBP1 (human),0
same,co-IP mass spectrometry count,SYNCRIP (human),4
same,co-IP mass spectrometry count,SYNPO (human),4
same,co-IP mass spectrometry count,RPS27A (human),14
same,co-IP mass spectrometry count,TBL2 (human),0
same,co-IP mass spectrometry count,IMMT (human),16
